Results taken from publication PMC2734569, “Functional mapping of the fission yeast DNA polymerase δ B-subunit Cdc1 by site-directed and random pentapeptide insertion mutagenesis” (BMC Molecular Biology, 2009).

Legend:
Test in all cases: two-hybrid; LexA-Cdc1 bait (pBTM116 or pBTM116BN) with Gal4-Pol3 prey and co-expressed c-myc-tagged Cdc27 (pAA-Cdc27) in S. cerevisiae CTY10-5d; ONPG liquid culture beta-galactosidase assay, mean of triplicates, as percent of wild-type Cdc1
Details in all cases: partners not purified
Cdc1-A5 = target: T1, Cdc1-A5 (Schizosaccharomyces pombe, UniProt P87324 1-462, Asn328Ala)
T1 construct: Cdc1, S. pombe, point mutant; source: yeast two-hybrid fusion, in S. cerevisiae CTY10-5d
T1 sequence (looked up): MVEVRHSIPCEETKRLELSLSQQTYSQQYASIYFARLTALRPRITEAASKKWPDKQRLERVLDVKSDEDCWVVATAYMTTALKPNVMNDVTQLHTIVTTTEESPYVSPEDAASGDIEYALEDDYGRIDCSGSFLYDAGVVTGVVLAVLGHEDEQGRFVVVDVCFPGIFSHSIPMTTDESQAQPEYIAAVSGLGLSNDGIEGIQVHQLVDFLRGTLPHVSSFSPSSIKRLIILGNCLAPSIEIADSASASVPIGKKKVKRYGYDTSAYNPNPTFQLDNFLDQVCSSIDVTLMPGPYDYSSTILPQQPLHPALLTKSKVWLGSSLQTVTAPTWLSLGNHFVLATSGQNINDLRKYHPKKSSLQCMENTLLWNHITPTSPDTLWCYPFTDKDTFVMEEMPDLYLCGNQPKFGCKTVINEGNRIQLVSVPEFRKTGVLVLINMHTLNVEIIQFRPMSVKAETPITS

Cdc1-J16 = target: T2, Cdc1-J16 (Schizosaccharomyces pombe, UniProt P87324 1-462, Val-GlyGlyThrProVal-Asp)
T2 construct: Cdc1, S. pombe, with a pentapeptide inserted after residue 160; source: yeast two-hybrid fusion, in S. cerevisiae CTY10-5d
T2 sequence (looked up): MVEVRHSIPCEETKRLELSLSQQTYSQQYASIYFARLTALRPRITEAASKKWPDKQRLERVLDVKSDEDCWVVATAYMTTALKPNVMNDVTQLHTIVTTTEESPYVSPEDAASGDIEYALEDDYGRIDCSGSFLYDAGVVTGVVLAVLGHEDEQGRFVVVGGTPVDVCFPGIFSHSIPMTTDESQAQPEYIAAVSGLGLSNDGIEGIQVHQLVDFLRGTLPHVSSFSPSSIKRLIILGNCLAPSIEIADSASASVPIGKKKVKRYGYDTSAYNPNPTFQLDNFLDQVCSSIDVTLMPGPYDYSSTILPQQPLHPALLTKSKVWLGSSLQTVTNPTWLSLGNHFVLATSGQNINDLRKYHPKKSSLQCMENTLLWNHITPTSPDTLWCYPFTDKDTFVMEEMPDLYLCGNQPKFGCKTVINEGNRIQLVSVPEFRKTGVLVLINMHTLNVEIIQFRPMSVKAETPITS

Cdc1-J12 = target: T3, Cdc1-J12 (Schizosaccharomyces pombe, UniProt P87324 1-462, Ser-GlyValProHisSer-Ile)
T3 construct: Cdc1, S. pombe, with a pentapeptide inserted after residue 7; source: yeast two-hybrid fusion, in S. cerevisiae CTY10-5d
T3 sequence (looked up): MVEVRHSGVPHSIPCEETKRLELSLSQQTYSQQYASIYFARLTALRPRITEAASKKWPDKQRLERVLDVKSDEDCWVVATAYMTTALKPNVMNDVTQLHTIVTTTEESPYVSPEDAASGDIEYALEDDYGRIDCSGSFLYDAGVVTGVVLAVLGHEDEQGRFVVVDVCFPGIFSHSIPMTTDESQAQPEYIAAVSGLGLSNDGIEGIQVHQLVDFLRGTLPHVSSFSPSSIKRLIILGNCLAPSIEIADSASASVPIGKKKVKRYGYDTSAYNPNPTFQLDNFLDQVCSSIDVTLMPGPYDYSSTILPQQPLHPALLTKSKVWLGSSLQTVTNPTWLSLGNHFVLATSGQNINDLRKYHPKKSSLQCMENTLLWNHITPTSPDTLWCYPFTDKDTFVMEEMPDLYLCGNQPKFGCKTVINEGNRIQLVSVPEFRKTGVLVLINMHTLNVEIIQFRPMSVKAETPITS

Cdc1-A2 = target: T4, Cdc1-A2 (Schizosaccharomyces pombe, UniProt P87324 1-462, Gly293Ala)
T4 construct: Cdc1, S. pombe, point mutant; source: yeast two-hybrid fusion, in S. cerevisiae CTY10-5d
T4 sequence (looked up): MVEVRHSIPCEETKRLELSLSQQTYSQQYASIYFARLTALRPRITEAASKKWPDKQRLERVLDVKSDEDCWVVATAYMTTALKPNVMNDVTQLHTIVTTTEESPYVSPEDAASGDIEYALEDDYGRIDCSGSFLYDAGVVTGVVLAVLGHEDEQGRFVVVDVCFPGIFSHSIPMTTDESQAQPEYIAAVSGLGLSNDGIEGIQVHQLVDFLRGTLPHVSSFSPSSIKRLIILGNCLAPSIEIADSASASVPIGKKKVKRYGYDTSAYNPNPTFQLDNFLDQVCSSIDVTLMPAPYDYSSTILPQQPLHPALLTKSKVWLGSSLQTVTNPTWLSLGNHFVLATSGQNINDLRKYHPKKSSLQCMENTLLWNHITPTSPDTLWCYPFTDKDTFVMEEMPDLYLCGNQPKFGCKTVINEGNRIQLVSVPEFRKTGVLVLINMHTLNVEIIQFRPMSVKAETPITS

B1: Pol3 (fission yeast DNA polymerase delta catalytic subunit) (natural protein, Schizosaccharomyces pombe, UniProt P30316 1-1086, looked up)
chain: MTDRSSNEGVVLNKENYPFPRRNGSIHGEITDVKRRRLSERNGYGDKKGSSSKEKTSSFEDELAEYASQLDQDEIKSSKDQQWQRPALPAINPEKDDIYFQQIDSEEFTEGSVPSIRLFGVTDNGNSILVHVVGFLPYFYVKAPVGFRPEMLERFTQDLDATCNGGVIDHCIIEMKENLYGFQGNEKSPFIKIFTTNPRILSRARNVFERGEFNFEELFPVGVGVTTFESNTQYLLRFMIDCDVVGMNWIHLPASKYQFRYQNRVSNCQIEAWINYKDLISLPAEGQWSKMAPLRIMSFDIECAGRKGVFPDPSIDPVIQIASIVTQYGDSTPFVRNVFCVDTCSQIVGTQVYEFQNQAEMLSSWSKFVRDVDPDVLIGYNICNFDIPYLLDRAKSLRIHNFPLLGRIHNFFSVAKETTFSSKAYGTRESKTTSIPGRLQLDMLQVMQRDFKLRSYSLNAVCSQFLGEQKEDVHYSIITDLQNGTADSRRRLAIYCLKDAYLPQRLMDKLMCFVNYTEMARVTGVPFNFLLARGQQIKVISQLFRKALQHDLVVPNIRVNGTDEQYEGATVIEPIKGYYDTPIATLDFSSLYPSIMQAHNLCYTTLLDSNTAELLKLKQDVDYSVTPNGDYFVKPHVRKGLLPIILADLLNARKKAKADLKKETDPFKKAVLDGRQLALKVSANSVYGFTGATNGRLPCLAISSSVTSYGRQMIEKTKDVVEKRYRIENGYSHDAVVIYGDTDSVMVKFGVKTLPEAMKLGEEAANYVSDQFPNPIKLEFEKVYFPYLLISKKRYAGLFWTRTDTYDKMDSKGIETVRRDNCPLVSYVIDTALRKMLIDQDVEGAQLFTKKVISDLLQNKIDMSQLVITKALSKTDYAAKMAHVELAERMRKRDAGSAPAIGDRVAYVIIKGAQGDQFYMRSEDPIYVLENNIPIDAKYYLENQLSKPLLRIFEPILGEKASSLLHGDHTRTISMAAPSVGGIMKFAVKVETCLGCKAPIKKGKTALCENCLNRSAELYQRQVAQVNDLEVRFARLWTQCQRCQGSMHQDVICTSRDCPIFYMRIAEHKKLQQSVDLLKRFDEMSW
notes: DNA polymerase delta catalytic subunit Pol3, S. pombe; prey plasmid named pACT-Pol3 in the results and pGAD2F-Pol3 in the methods; also called Gal4-Pol3; pACT-Pol3; source: yeast two-hybrid fusion, in S. cerevisiae CTY10-5d
**Q.** For B1, which “two-hybrid beta-galactosidase activity, % of wild-type Cdc1” value (Cdc1-A5) is on record?
**A.** 4%

**Q.** And the “two-hybrid beta-galactosidase activity, % of wild-type Cdc1” value (Cdc1-J16)?
**A.** < 1%

**Q.** What about the “two-hybrid beta-galactosidase activity, % of wild-type Cdc1” value (Cdc1-J12) of the same binder?
**A.** < 1%

**Q.** And the “two-hybrid beta-galactosidase activity, % of wild-type Cdc1” value (Cdc1-A2)?
**A.** < 1%
